Test results taken from paper doi:10.1101/2024.01.05.574393.

What was measured:
[1] = target: HSPB1ACD (α-crystallin domain of HSPB1) (human); experiment: native MS
[2] = target: HSPB5ACD (α-crystallin domain of HSPB5) (human); experiment: native MS

| Substance | Kd [1] | Kd [2] |
| --- | --- | --- |
| HSPB1 C-terminal peptide (cognate peptide of HSPB1ACD) | < 100 µM |  |
| HSPB5 C-terminal peptide (cognate peptide of HSPB5ACD) |  | < 100 µM |
